Experimental findings from PMC8625556 are described below.

In the data set the test system is GST:p33ΔTMD (Citrus tristeza virus (isolate T36)). Description: EMSA.

Substance LMT1 full length (1-780) returned a Kd of 122 nM.
